This data set is described as follows: self-splicing fitness, log relative to wild type (ln ratio); higher = more splicing; Tetrahymena group I intron in knt gene, E. coli kanamycin selection, DiMSum; sequences stand for … in CUCUCU…GGAGGGAAAAGUUAUCAGGCAUGCACCUGGUAGCUAGUCUUUAAACCAAUAGAUUGCAUCGGUUUAAAAGGCAAGACCGUCAAAUUGCGGGAAAGGGGUCAACAGCCGUUCAGUACCAAGUCUCAGGGGAAACUUUGAGAUGGCCUUGCAAAGGGUAUGGUAAUAAGCUGACGGACAUGGUCCUAACCACGCAGCCAAGUCCUAAGUCAACAGAUCUUCUGUUGAUAUGGAUGCAGUUCACAGACUAAAUGUCGGUCGGGGAAGAUGUAUUCUUCUCAUAAGAUAUAGUCGGACCUCUCCUUAAUGGGAGCUAGCGGAUGAAGUGAUGCAACACUGGAGCCGCUGGGAACUAAUUUGUAUGCGAAAGUAUAUUGAUUAGUUUUGGAGUACUCGUGGUCG
In short, it runs like this:
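The eight P1ex-region nucleotides of an intron in the knt kanamycin-resistance gene on pET-22b(+) were all randomised and the library put into E. coli BL21(DE3). Six replicate transformations were grown overnight at 37°C or 30°C on LB agar with or without 25 μg/mL kanamycin, together with 100 μg/mL carbenicillin, 50 μM IPTG and 0.2% rhamnose. Colonies were pooled and amplicon-sequenced on an Illumina HiSeq 2500. Fitness from DiMSum is the error-weighted combination of wild-type-normalised replicate fold changes, kanamycin over none.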

± gives the uncertainty stated by the source.

Consider AUAGAGCAAUAUUACGCUCG, for which the “self-splicing fitness (ln)” value is -0.665 ± 0.41 (30 °C) and 0.704 ± 0.38 (37 °C).

With UCACAGCAAUAUUACGGGGG, the “self-splicing fitness (ln)” value runs as follows: (30 °C) -2.39 ± 0.15; (37 °C) -2.03 ± 0.16. Take AUAUAGCAAUAUUACGCUGC: the “self-splicing fitness (ln)” value (37 °C) is -1.74 ± 0.34. Regarding UCCAAGCAAUAUUACGUUGU, the “self-splicing fitness (ln)” value is -3.79 ± 0.16 (30 °C) and -1.7 ± 0.13 (37 °C).

In the case of GAUCAGCAAUAUUACGCGAA, the “self-splicing fitness (ln)” value is, setting by setting: (30 °C) -1.49 ± 0.086; (37 °C) -0.586 ± 0.09. For CAGCAGCAAUAUUACGUAGU the same measures were -3.03 ± 0.12 and -2.56 ± 0.13.

Consider GGAUAGCAAUAUUACGGAGU, for which the “self-splicing fitness (ln)” value by setting is: (30 °C) -2.95 ± 0.34; (37 °C) -2.16 ± 0.42. For GAGGAGCAAUAUUACGAACC the same measures were -2.84 ± 0.42 and -1.19 ± 0.38. For ACGGAGCAAUAUUACGUAAU, in that order: -3.61 ± 0.41 and -2.39 ± 0.48. For GCGGAGCAAUAUUACGUGUG the same measures were -3.19 ± 0.17 and -2.77 ± 0.29.

For the sequence CAUGAGCAAUAUUACGUCAU, the “self-splicing fitness (ln)” value (30 °C) was -3.61 ± 0.24 and the “self-splicing fitness (ln)” value (37 °C) was -1.24 ± 0.22. For UCUUAGCAAUAUUACGGCGG, in that order: -0.64 ± 0.11 and -0.0592 ± 0.13. For AACUAGCAAUAUUACGAAUG, in that order: -2.36 ± 0.11 and -1.69 ± 0.12.

Turning to CAUCAGCAAUAUUACGCUGC, the “self-splicing fitness (ln)” value (37 °C) is -2.61 ± 0.3. Regarding AACUAGCAAUAUUACGCUUU, the “self-splicing fitness (ln)” value is, setting by setting: (30 °C) -2.44 ± 0.097; (37 °C) -1.71 ± 0.12.

As to GAAGAGCAAUAUUACGCACU, the “self-splicing fitness (ln)” value was -2.39 ± 0.17 (30 °C) and -1.33 ± 0.18 (37 °C). For CUUGAGCAAUAUUACGUCAU, in that order: -3.58 ± 0.29 and -2.88 ± 0.31. With CCAGAGCAAUAUUACGAAGU, the “self-splicing fitness (ln)” value was -4.41 ± 0.46 (30 °C) and -2.8 ± 0.34 (37 °C).

As for CACCAGCAAUAUUACGCCUC, the “self-splicing fitness (ln)” value (30 °C) was -3.14 ± 0.23 and the “self-splicing fitness (ln)” value (37 °C) is -1.9 ± 0.2. For CACCAGCAAUAUUACGUCUA, in that order: -2.84 ± 0.091 and -1.79 ± 0.091.

As to AACGAGCAAUAUUACGGAUG, under “30 °C”, the “self-splicing fitness (ln)” value is -3.34 ± 0.31. With ACGCAGCAAUAUUACGCUCG, the “self-splicing fitness (ln)” value by setting is: (30 °C) -2.56 ± 0.12; (37 °C) -1.67 ± 0.16. For GGCGAGCAAUAUUACGUAUU the same measures were -2.29 ± 0.14 and -0.757 ± 0.12. For GUAAAGCAAUAUUACGUGCG, in that order: -0.447 ± 0.065 and -0.538 ± 0.069. In the case of UGCCAGCAAUAUUACGUCUA, the “self-splicing fitness (ln)” value was -0.347 ± 0.081 (30 °C) and -0.671 ± 0.089 (37 °C). For GUGCAGCAAUAUUACGAAUC, in that order: -1.28 ± 0.17 and -0.491 ± 0.18. As for UGUCAGCAAUAUUACGUUCC, the “self-splicing fitness (ln)” value (30 °C) is -1.82 ± 0.19 and the “self-splicing fitness (ln)” value (37 °C) was -0.73 ± 0.25. For AACAAGCAAUAUUACGCGUC the same measures were -3.84 ± 0.2 and -2.66 ± 0.15. As for GCAGAGCAAUAUUACGCUAA, under “37 °C”, the “self-splicing fitness (ln)” value was -2.95 ± 0.43. As for CCGCAGCAAUAUUACGCUGU, the “self-splicing fitness (ln)” value reads like this: (30 °C) -3.3 ± 0.36; (37 °C) -2.85 ± 0.23. For UACUAGCAAUAUUACGGCCG, in that order: 0.508 ± 0.14 and 0.00712 ± 0.17. For UUCAAGCAAUAUUACGUGCU the same measures were -4.47 ± 0.42 and -2.86 ± 0.35. For the sequence AACUAGCAAUAUUACGUGAG, the “self-splicing fitness (ln)” value by setting is: (30 °C) -1.28 ± 0.075; (37 °C) -1.03 ± 0.1. For AUAUAGCAAUAUUACGGCGU the same measures were -0.109 ± 0.11 and -0.16 ± 0.12. For AUACAGCAAUAUUACGCAUA, in that order: -1.54 ± 0.12 and -0.743 ± 0.13.

On to UUACAGCAAUAUUACGUGCG, for which the “self-splicing fitness (ln)” value by setting is: (30 °C) -0.895 ± 0.092; (37 °C) -0.0854 ± 0.12. For AGAAAGCAAUAUUACGGCGU, in that order: 0.239 ± 0.073 and 0.133 ± 0.091.

As for UCGUAGCAAUAUUACGGGUU, the “self-splicing fitness (ln)” value reads like this: (30 °C) -3.23 ± 0.18; (37 °C) -2.38 ± 0.23. As to CGUGAGCAAUAUUACGCCUA, the “self-splicing fitness (ln)” value is -1.86 ± 0.25 (30 °C) and -0.88 ± 0.36 (37 °C). For AAACAGCAAUAUUACGCCAA the same measures were -3.08 ± 0.25 and -1.44 ± 0.15. For UGAAAGCAAUAUUACGCGAA the same measures were -1.52 ± 0.17 and -1.05 ± 0.2. For the sequence AUAUAGCAAUAUUACGGGUG, the “self-splicing fitness (ln)” value was -1.81 ± 0.17 (30 °C) and -1.3 ± 0.15 (37 °C).

Consider GGGGAGCAAUAUUACGGUGA, for which the “self-splicing fitness (ln)” value (30 °C) is -2.23 ± 0.36.

Regarding CAGAAGCAAUAUUACGAACG, the “self-splicing fitness (ln)” value was -0.0252 ± 0.12 (30 °C) and 0.182 ± 0.16 (37 °C). For UCCAAGCAAUAUUACGCUGA, in that order: -1.43 ± 0.092 and -1.07 ± 0.085.

Turning to AAAUAGCAAUAUUACGAGGC, where the note is “30 °C”, the “self-splicing fitness (ln)” value was -3.64 ± 0.47. Take GAGUAGCAAUAUUACGCCCA: the “self-splicing fitness (ln)” value reads like this: (30 °C) -1.78 ± 0.39; (37 °C) -1.39 ± 0.24.

As to AGCGAGCAAUAUUACGAGGU, the “self-splicing fitness (ln)” value (30 °C) is -3.69 ± 0.24 and the “self-splicing fitness (ln)” value (37 °C) was -2.48 ± 0.3.

As for GCCCAGCAAUAUUACGCUGA, the “self-splicing fitness (ln)” value by setting is: (30 °C) -1.08 ± 0.13; (37 °C) -0.784 ± 0.18. UCUCAGCAAUAUUACGGAAG: the “self-splicing fitness (ln)” value is, setting by setting: (30 °C) -1.82 ± 0.18; (37 °C) -2.93 ± 0.3. Turning to CGCGAGCAAUAUUACGUUAU, the “self-splicing fitness (ln)” value by setting is: (30 °C) -3.91 ± 0.21; (37 °C) -3.49 ± 0.3.

For GAGGAGCAAUAUUACGUACG, the “self-splicing fitness (ln)” value (30 °C) is -2.21 ± 0.19. As to AGGCAGCAAUAUUACGAAAG, the “self-splicing fitness (ln)” value was -3.39 ± 0.22 (30 °C) and -2.46 ± 0.22 (37 °C). For CCUAAGCAAUAUUACGUAAC, in that order: -2.97 ± 0.17 and -1.77 ± 0.29. Turning to AGACAGCAAUAUUACGAAUG, the “self-splicing fitness (ln)” value (30 °C) was -2.45 ± 0.11 and the “self-splicing fitness (ln)” value (37 °C) was -1.86 ± 0.12.

Take UAGUAGCAAUAUUACGCACA: the “self-splicing fitness (ln)” value is, setting by setting: (30 °C) -1.2 ± 0.1; (37 °C) -0.493 ± 0.12. Consider UUAGAGCAAUAUUACGGUGC, for which the “self-splicing fitness (ln)” value (30 °C) is -3.76 ± 0.28 and the “self-splicing fitness (ln)” value (37 °C) was -2.11 ± 0.36. On to CGUGAGCAAUAUUACGAGCC, for which, for the setting “37 °C”, the “self-splicing fitness (ln)” value is -1.35 ± 0.41. As for CCGCAGCAAUAUUACGAGAG, the “self-splicing fitness (ln)” value (30 °C) was -2.62 ± 0.084 and the “self-splicing fitness (ln)” value (37 °C) is -1.56 ± 0.082. For CGGCAGCAAUAUUACGAAAU the same measures were -3.82 ± 0.33 and -2.76 ± 0.33. For GUAUAGCAAUAUUACGAUGC, in that order: -2.65 ± 0.2 and -2.55 ± 0.24. In the case of UUUAAGCAAUAUUACGAGGU, the “self-splicing fitness (ln)” value is -3.65 ± 0.22 (30 °C) and -2.04 ± 0.15 (37 °C). For GGAUAGCAAUAUUACGGAUU, in that order: -1.79 ± 0.12 and -0.787 ± 0.12. For CUUUAGCAAUAUUACGUUAU, in that order: -3.64 ± 0.23 and -1.79 ± 0.19. For AACAAGCAAUAUUACGAGUG the same measures were -0.911 ± 0.049 and -0.0361 ± 0.07.

On to CGCUAGCAAUAUUACGAGGG, for which the “self-splicing fitness (ln)” value (30 °C) is -2.59 ± 0.11 and the “self-splicing fitness (ln)” value (37 °C) was -2.44 ± 0.17.

As for CCCUAGCAAUAUUACGCUUC, the “self-splicing fitness (ln)” value is -2.66 ± 0.1 (30 °C) and -2.36 ± 0.16 (37 °C). For GGCCAGCAAUAUUACGCAAU, in that order: -1.17 ± 0.098 and -1.2 ± 0.09.

For the sequence CAACAGCAAUAUUACGUCGA, the “self-splicing fitness (ln)” value is -1.37 ± 0.09 (30 °C) and -0.379 ± 0.077 (37 °C).

For AAGGAGCAAUAUUACGGAUU, the “self-splicing fitness (ln)” value reads like this: (30 °C) -2.19 ± 0.11; (37 °C) -1.69 ± 0.095. Regarding GGCAAGCAAUAUUACGCGAC, the “self-splicing fitness (ln)” value is, setting by setting: (30 °C) -3.25 ± 0.23; (37 °C) -2.23 ± 0.27. For GGCUAGCAAUAUUACGUACG the same measures were -0.805 ± 0.1 and 0.365 ± 0.11. For CGCCAGCAAUAUUACGGUCU, in that order: -0.989 ± 0.061 and -0.324 ± 0.076. For the sequence ACGCAGCAAUAUUACGGUUC, the “self-splicing fitness (ln)” value was -3.63 ± 0.22 (30 °C) and -1.89 ± 0.15 (37 °C).

In the case of ACCUAGCAAUAUUACGUUAU, the “self-splicing fitness (ln)” value by setting is: (30 °C) -2.43 ± 0.11; (37 °C) -1.53 ± 0.11. As to UCCAAGCAAUAUUACGCAUC, the “self-splicing fitness (ln)” value was -3.02 ± 0.21 (30 °C) and -2.93 ± 0.24 (37 °C). For AAAAAGCAAUAUUACGGGUU, in that order: -1.38 ± 0.075 and -1.37 ± 0.11.

Source of the values: the supplement of paper PMC7877785.
